Measured values: the Immune Epitope Database (IEDB)

Target: HLA-A*02:01
Assay: IEDB peptide-MHC binding, purified MHC/competitive/radioactivity; ≥ and ≤ were set here for values at or beyond the usual limits of such assays
Conditions: source organism: Homo sapiens

| Sequence | IC50 [nM] |
| --- | --- |
| ALCRWGLLLA | 139 |
| KIWEELSML | 167 |
| KVAELVHFLL | 55.6 |
| LLGICLTSTV | 102 |

Results, then the sequence that gave them:

| IC50 [nM] | Sequence |
| --- | --- |
| 36.8 | GIMIGVLVGV |
| 54.3 | HLFIYATCLGL |
| 9.8 | KMVELVHFL |
